{
  "source": "paper PMC10372576",
  "about": "(Proceedings of the National Academy of Sciences of the …, 2023)",
  "molecular_target": "T1, S.c. Mon1–Ccz1 complex (wild type) (Saccharomyces cerevisiae, UniProt P53129;P38273)",
  "T1 sequence 1": "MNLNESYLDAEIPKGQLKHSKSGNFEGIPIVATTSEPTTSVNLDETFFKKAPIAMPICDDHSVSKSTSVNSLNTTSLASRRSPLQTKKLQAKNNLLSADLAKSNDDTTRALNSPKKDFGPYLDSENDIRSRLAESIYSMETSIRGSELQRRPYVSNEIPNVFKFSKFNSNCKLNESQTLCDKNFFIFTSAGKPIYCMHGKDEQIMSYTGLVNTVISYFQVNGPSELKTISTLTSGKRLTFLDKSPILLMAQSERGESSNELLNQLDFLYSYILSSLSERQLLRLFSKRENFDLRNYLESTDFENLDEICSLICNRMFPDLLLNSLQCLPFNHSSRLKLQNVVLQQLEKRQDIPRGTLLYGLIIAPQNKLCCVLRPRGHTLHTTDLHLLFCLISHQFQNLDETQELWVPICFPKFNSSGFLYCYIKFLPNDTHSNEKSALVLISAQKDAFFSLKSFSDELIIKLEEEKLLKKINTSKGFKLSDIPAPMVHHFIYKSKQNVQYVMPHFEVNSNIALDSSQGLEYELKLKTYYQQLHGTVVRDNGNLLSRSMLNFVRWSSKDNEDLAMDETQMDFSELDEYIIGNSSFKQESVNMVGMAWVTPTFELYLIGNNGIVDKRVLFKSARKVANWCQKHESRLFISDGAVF",
  "T1 sequence 2": "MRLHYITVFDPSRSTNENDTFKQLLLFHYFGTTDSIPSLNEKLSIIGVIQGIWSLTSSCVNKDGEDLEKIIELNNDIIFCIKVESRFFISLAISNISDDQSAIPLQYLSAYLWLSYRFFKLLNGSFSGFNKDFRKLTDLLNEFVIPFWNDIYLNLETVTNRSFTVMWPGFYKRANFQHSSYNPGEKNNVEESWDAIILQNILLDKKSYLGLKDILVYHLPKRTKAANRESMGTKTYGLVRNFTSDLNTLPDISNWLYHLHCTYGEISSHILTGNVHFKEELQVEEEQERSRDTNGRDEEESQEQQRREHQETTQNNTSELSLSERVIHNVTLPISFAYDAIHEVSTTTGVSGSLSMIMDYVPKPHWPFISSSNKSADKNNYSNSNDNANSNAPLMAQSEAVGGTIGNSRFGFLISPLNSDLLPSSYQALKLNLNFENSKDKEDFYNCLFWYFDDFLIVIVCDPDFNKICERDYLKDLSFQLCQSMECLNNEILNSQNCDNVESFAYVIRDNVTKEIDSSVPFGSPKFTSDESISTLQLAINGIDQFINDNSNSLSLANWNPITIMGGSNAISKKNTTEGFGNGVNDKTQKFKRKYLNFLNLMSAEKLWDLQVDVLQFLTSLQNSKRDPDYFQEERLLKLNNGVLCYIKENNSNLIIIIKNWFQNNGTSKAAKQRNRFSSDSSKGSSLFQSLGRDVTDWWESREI",
  "test": "pull-down",
  "data": [
    {"binder": "GST-Ypt10 (natural protein) MEATIKVVLLGDSSVGKTSIVTRLKSGKFLAKHAATIGAAFITKTIEVPSNDSSTEKRIHMEIWDTAGQERYKSLVPMYYRDANIALIVFELGDVSSLQCAKTWFQDLQDRAQGTQVIIVGNKYDLVCEEHSGEVTIPAELQGLPYVAVSAKTGYNFDTLNKIIISLVPESQFKTLSKNNEQGNILEINKKKSGSGCIC", "values": [
      {"measurement": "binding result", "result": "binds"}
    ]}
  ]
}
